# B1: AG3.18: recombinant (−)-pinene synthase from Grand fir encoded by cDNA clone AG3.18 (SEQ ID NO:3; protein SEQ ID NO:4) (protein, listed as Abies grandis)
# chain: MALVSTAPLASKSCLHKSLISSTHELKALSRTIPALGMSRRGKSITPSISMSSTTVVTDDGVRRRMGDFHSNLWDDDVIQSLPTAYEEKSYLERAEKLIGEVKNMFNSMSLEDGELMSPLNDLIQRLWIVDSLERLGIHRHFKDEIKSALDYVYSYWGENGIGCGRESVVTDLNSTALGLRTLRLHGYPVSSDVFKAFKGQNGQFSCSENIQTDEEIRGVLNLFRASLIAFPGEKIMDEAEIFSTKYLKEALQKIPVSSLSREIGDVLEYGWHTYLPRLEARNYIQVFGQDTENTKSYVKSKKLLELAKLEFNIFQSLQKRELESLVRWWKESGFPEMTFCRHRHVEYYTLASCIAFEPQHSGFRLGFAKTCHLITVLDDMYDTFGTVDELELFTATMKRWDPSSIDCLPEYMKGVYIAVYDTVNEMAREAEEAQGRDTLTYAREAWEAYIDSYMQEARWIATGYLPSFDEYYENGKVSCGHRISALQPILTMDIPFPDHILKEVDFPSKLNDLACAILRLRGDTRCYKADRARGEEASSISCYMKDNPGVSEEDALDHINAMISDVIKGLNWELLKPDINVPISAKKHAFDIARAFHYGYKYRDGYSVANVETKSLVTRTLLESVPL
# Experiment: Monoterpene synthase assay and product identification with extracts of E. coli expressing Grand fir cDNA clones (Example 3)
# Assay type: biochemical
# Procedure: For expression, bacterial strains E. coil XLOLR/pAG3.18, E. coil XLOLR/pAG3.48, E. coli XL1-Blue/pGAG2.2, E. coli XL1-Blue/pGAG3.18, and E. coil BL21(DE3)/pSBAG10were grown to A600=0.5 at 37° C. in 5 ml of LB medium (Sambrock, J., Fritsch, E. F., and Maniatis, T. (1989) Molecular Cloning: A Laboratory Manual, 2d Ed., Cold Spring Harbor Laboratory, Cold Spring Harbor, N.Y.) supplemented with 100 μg ampicillin/ml or 30 μg kanamycin/ml as determined by the vector. Cultures were then induced by addition of 1 mM isopropyl-1-thio-β-D-galactopyranoside and grown for another 12 h at 20° C. Cells were harvested by centrifugation (2000×g, 10 min) and resuspended in either 1 ml monoterpene synthase assay buffer [50 mM Tris/HCl (pH 7.5), 500 mM KCl, 1 mM MnCl2, 5 mM dithiothreitol, 0.05% (w/v) NaHSO3 and 10% (v/v) glycerol], 1 ml sesquiterpene synthase assay buffer [10 mM dibasic potassium phosphate, 1.8 mM monobasic potassium phosphate (pH 7.3), 140 mM NaCl, 10 mM MgCl2, 5 mM dithiothreitol, 0.05% (w/v) NaHSO3 and 10% (v/v) glycerol], or 1 ml diterpene synthase assay buffer [30 mM Hepes (N-2-hydroxyethylpiperazine-N-′2-ethanesulfonic acid, pH 7.2), 7.5 mM MgCl2, 5 mM dithiothreitol, 10 µM MnCl2, 0.05% (w/v) NaHSO3 and 10% (v/v) glycerol].
# Cells were disrupted by sonication (Braun-Sonic 2000 with microprobe at maximum power for 15 seconds at 0-4° C.), the homogenates were cleared by centrifugation (18,000×g, 10 min), and 1 ml of the resulting supernatant was assayed for monoterpene synthase activity with 2.5 μM of [1-^3H]geranyl diphosphate, for sesquiterpene synthase activity with 3.5 μM [1-^3H]farnesyl diphosphate, or for diterpene synthase activity with 5 μM [1- ^3H]geranylgeranyl diphosphate following standard protocols (Croteau, R., and Cane, D. E. (1985) Methods Enzymol. 110:383-405; LaFever, R. E., Stofer Vogel, B., and Croteau, R. (1994) Arch. Biochem. Biophys. 313:139-149; Dehal, S. S., and Croteau, R. (1988) Arch. Biochem. Biophys. 261:346-356). In the case of the monoterpene synthase and sesquiterpene synthase assays, the incubation mixture was overlaid with 1 ml pentane to trap volatile products. In all cases, after incubation at 31° C. for 2 h, the reaction mixture was extracted with pentane (3×1 ml) and the combined extract was passed through a 1.5 ml column of anhydrous MgSO4 and silica gel (Mallinckrodt 60 Å) to provide the terpene hydrocarbon fraction free of oxygenated metabolites. The columns were subsequently eluted with 3×1 ml of ether to collect any oxygenated products, and an aliquot of each fraction was taken for liquid scintillation counting to determine conversion rate.
# Product Identification—To obtain sufficient product for analysis by radio-GLC (gas liquid chromatography), chiral capillary GLC and GLC-MS (mass spectrum/spectrometry), preparative-scale enzyme incubations were carried out. Thus, the enzyme was prepared from 50 ml of cultured bacterial cells by extraction with 3 ml of assay buffer as above, and the extracts were incubated with excess substrate overnight at 31° C. The hydrocarbon fraction was isolated by elution through MgSO4-silica gel as before, and the pentane eluate was concentrated for evaluation by capillary radio-GLC as described (Croteau, R., and Satterwhite, D. M. (1990) J. Chromatogr. 500:349-354), by chiral column capillary GLC (Lewinsohn, E., Savage, T. J., Gijzen, M., and Croteau, R. (1993) Phytochem. Anal. 4:220-225), and by combined GLC-MS [Hewlett-Packard 6890 GC-MSD with cool (40° C.) on-column injection, detection via electron impact ionization (70 eV), He carrier at 0.7 psi., column:0.25 mm i.d.×30 m fused silica with 0.25 μm film of 5MS (Hewlett-Packard) programmed from 35° C. (5 min hold) to 230° C. at 5° C./min].
molecule,measurement,setting,value
B1,"prenyl diphosphate substrate utilized (geranyl, farnesyl, geranylgeranyl diphosphate tested)","cell-free extract of induced E. coli, tritium labeled substrates",only geranyl diphosphate was utilized
same,α-pinene share of product mixture from geranyl diphosphate,cell-free extracts of E. coli,42%
same,β-pinene share of product mixture from geranyl diphosphate,cell-free extracts of E. coli,58%
same,monoterpene products formed from geranyl diphosphate,"radio-GLC, GLC-MS, chiral GLC",No other monoterpene co-products were detected
